In US20180327500A1 (SYMPHOGEN A S, published 2018):
One block for each binder: values may come before it.

How the values were obtained:
Mouse Blade 1-4 = molecular target: T1, Mouse Blade 1-4; experiment: flow cytometry on transfected HEK293 cells;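 also: antibodies applied at 50 µg/ml, binding called specific when fluorescence exceeds the mean signal on a negative control chicken or mouse MET construct plus four SD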
T1 construct: human/mouse chimera on transfected HEK293 cells; also called AA 25-295
Description: (§1) Cut-off values defined as the average fluorescence signal of all antibodies tested at 50 μg/ml to the negative control chicken or mouse MET construct+four standard deviations were employed to discriminate background binding from specific binding for the domain exchange or blade exchange constructs.
T1 MET ECD-SV5-GPI fusion: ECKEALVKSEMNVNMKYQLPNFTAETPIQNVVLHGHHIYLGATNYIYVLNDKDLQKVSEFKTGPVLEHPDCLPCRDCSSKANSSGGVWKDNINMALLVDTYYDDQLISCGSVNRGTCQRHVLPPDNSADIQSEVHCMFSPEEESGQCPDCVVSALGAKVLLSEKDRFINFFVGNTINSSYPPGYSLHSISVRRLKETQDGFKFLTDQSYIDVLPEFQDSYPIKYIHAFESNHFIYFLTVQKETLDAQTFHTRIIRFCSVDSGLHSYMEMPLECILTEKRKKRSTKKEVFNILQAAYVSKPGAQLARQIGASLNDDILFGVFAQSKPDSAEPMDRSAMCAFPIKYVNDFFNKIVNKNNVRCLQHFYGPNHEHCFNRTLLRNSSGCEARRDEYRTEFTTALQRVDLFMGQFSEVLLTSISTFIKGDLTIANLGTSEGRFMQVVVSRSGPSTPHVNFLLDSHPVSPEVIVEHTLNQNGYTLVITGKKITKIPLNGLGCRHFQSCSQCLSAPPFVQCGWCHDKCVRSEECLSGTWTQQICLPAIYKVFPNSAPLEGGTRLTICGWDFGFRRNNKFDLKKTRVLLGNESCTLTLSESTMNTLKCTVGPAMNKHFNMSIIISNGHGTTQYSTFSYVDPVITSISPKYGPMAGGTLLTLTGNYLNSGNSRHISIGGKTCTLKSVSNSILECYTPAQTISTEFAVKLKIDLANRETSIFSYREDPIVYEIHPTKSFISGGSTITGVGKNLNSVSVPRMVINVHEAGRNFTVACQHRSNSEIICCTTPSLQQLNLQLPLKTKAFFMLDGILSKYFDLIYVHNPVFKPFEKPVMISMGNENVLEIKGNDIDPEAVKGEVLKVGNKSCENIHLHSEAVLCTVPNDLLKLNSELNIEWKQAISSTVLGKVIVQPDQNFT

Mouse blade 2 = molecular target: T2, Mouse blade 2; experiment: flow cytometry on transfected HEK293 cells;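 also: antibodies applied at 50 µg/ml, binding called specific when fluorescence exceeds the mean signal on a negative control chicken or mouse MET construct plus four SD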
T2 construct: human/mouse chimera on transfected HEK293 cells; also called Mouse blade 2-IPT4
Description: as §1
T2 MET ECD-SV5-GPI fusion: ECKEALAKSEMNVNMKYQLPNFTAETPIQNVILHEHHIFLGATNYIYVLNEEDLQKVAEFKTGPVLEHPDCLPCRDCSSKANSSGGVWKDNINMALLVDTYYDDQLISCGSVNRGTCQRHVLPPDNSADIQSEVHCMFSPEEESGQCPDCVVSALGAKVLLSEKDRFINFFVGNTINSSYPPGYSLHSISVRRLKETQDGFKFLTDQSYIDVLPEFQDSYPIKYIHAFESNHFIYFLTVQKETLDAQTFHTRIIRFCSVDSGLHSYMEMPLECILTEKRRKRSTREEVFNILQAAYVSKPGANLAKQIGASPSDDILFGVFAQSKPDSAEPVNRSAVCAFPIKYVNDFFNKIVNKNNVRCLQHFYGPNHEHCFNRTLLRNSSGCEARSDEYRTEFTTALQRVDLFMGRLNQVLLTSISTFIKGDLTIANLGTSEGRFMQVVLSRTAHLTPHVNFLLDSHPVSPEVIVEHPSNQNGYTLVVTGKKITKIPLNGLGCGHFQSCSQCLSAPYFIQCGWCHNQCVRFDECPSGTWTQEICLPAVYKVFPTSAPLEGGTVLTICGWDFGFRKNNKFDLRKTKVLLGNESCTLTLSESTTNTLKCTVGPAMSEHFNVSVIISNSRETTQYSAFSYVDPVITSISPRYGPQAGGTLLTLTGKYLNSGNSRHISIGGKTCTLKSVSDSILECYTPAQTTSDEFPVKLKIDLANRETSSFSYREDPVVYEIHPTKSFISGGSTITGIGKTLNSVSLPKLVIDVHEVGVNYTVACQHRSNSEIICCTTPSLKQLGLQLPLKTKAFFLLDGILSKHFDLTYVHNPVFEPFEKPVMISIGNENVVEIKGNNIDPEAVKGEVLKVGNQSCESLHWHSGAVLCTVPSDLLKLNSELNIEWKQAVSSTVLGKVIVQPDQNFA

[1] = molecular target: T3, His tagged human MET ECD (Sinobiological) (human, UniProt P08581 25-932); experiment: SPR (Bio-Rad XPR-36); antibody captured on anti-human IgG Fc surface, MET ECD 25 to 1.56 nM, 1:1 Langmuir fit
T3 construct: Bought monovalent antigen; also called human MET antigen; not shown: His tag

[2] = molecular target: T3, His tagged human MET ECD …; experiment: BLI (Octet QK384); antibody captured on anti-human Fc sensors, monovalent MET ECD in solution, 1:1 Langmuir fit
Description: His tagged human or cynomolgus MET ECD antigens were purchased from Sinobiological, China. […] Measurements were conducted with a plate rotation speed of 1000 rpm and sensors were regenerated and reused by brief 5 second alternations between exposure to 10 mM Glycine:HCl buffer (pH 1.5) or PBS buffer containing 1% BSA and 0.001% Tween 20 three times. For the Surface Plasmon Resonance experiments conducted on the Bio-Rad XPR-36 instrument, anti-MET antibodies were adjusted to a concentration of 0.25-0.5 μg/ml and captured on anti-human IgG Fc surfaces generated by immobilizing a monoclonal anti-human Fc antibody (Biacore, Denmark). […] The recorded binding responses were fitted to a simple Langmuir 1:1 binding model for calculation of the on-rate (kon or ka), off-rate (koff or kd) and affinity (KD) constants using double referencing.

binding result (Mouse Blade 1-4): no binding (tested: 50 µg/ml)
binding result (Mouse blade 2): no binding (tested: 50 µg/ml)
B1: humanized antibody 9338 (antibody, human IgG1, kappa, V domains shown)
VH: QVQLVQSGAEVKKPGSSVKVSCKASGYTFTSYWMHWVRQAPGQGLEWMGYINPSSGHIENNQKFKDRVTITADKSTSTAYMELSSLRSEDTAVYYCARGRFAYWGQGTLVTVSS
VL: EIVLTQSPATLSLSPGERATLSCSASSSVSSGYLYWYQQKPGQAPRLLIYSTSNLASGIPARFSGSGSGTDFTLTISSLEPEDFAVYYCHQWSSYPFTFGSGTKLEIKR
notes: also called Hu9338; hu9338

binding result (Mouse Blade 1-4): no binding (tested: 50 µg/ml)
binding result (Mouse blade 2): no binding (tested: 50 µg/ml)
Kd [1]: 0.055 nM
koff [1]: 1.1e-05 s⁻¹
kon [1]: 190000 M⁻¹ s⁻¹
Kd [2]: 1.2 nM
koff [2]: 7.6e-05 s⁻¹
kon [2]: 62000 M⁻¹ s⁻¹
B2: humanized antibody 9006 (antibody, human IgG1, kappa, V domains shown)
VH: QVQLVQSGSELKKPGASVKVSCKASGYTFTNFRMNWVKQAPGQGLKWMGWINTYTGEPTYVDDLKGRFVFSLDTSVSTAYLQISSLKAEDTAVYYCARKGIARAMDYWGQGTTVTVSS
VL: DIVMTQSPDSLAVSLGERATINCKSSQSLLDSGNQKNYLAWYQQKPGQPPKLLIFGASTRESGVPDRFSGSGSGTDFTLTISSLQAEDVAVYYCQNDHSYPYTFGQGTKLEIKR
notes: also called Hu9006; hu9006
